From the nanobody polyreactivity screen of Harvey et al. (2022)

experiment: yeast display, Sf9 membrane polyspecificity reagent, FACS + sequencing; frameworks hold sequencing errors
Method in brief: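 Galactose-induced (36–48 hours) yeast carrying a synthetic nanobody display library were exposed to 10% biotinylated, detergent-solubilized Sf9 membrane reagent at 4 °C for 1 hour. FACS followed streptavidin microbead enrichment, using low and high (top ~1%) gates for expression (anti-HA) and reagent binding (streptavidin). Colony PCR, MiSeq 2 × 250 sequencing and CDR-length filtering followed. Labels for polyreactivity reflect the gate of origin.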

Row | Sequence | polyreactivity (PSR sort gate)
1 | QVQLVESGGGLVQAGGSLRLSCAASGRTFYPYAMGWYRQAPGKERELVATIRWTGGSTYYADSVKGRFTISRDNAKNTVYLQMNSLKPEDTAVYYCAAQNYFAFIRTYRYVHRPTYYYWGQGTQVTVSS | high polyreactivity
2 | QVQLVESGGGLVQAGGSLRLSCAASGRTFYPYTMGWYRQAPGKEMELVAAITTSTGNTYYADSVKGRFTISRDNAKNNVYLQMNILKPEDTSVYYCAADTVWRLDYWGQGTKVTVSS | low polyreactivity
3 | QVQLVESGGGLVQAGGSLRLSCAASGRTFYPYVMGWYRQAPGKEREFVAAISGTGGSTYYADSVKGRFTISRDNAKNTVYLQMNSLKPEDTAVYYCNRRIPYTSYSYGYWGQGTQVTVSS | high polyreactivity
4 | QVQLVESGGGLVQAGGSLRLSCAASGRTFYQNVMGWYRPAPGKERELVAAISQRGGRTYYADSVKGRFTISRDNAKNTVYLQMNSLKPEDTAVYYCNADSTVWPYDYWGQGTQVTVSS | low polyreactivity
5 | QVQLVESGGGLVQAGGSLRLSCAASGRTFYQYAMGWYRQAPGKERELVAAISKSGRRTYYADSVKGRFTISRDNAKNTVYLQINSLKPEDTAVYYCNAARYLTRWGRFYYWGEGTQVTVSS | high polyreactivity
6 | QVQLVESGGGLVQAGGSLRLSCAASGRTFYQYGMGWYRQAPGKERELVAAISDSGGGTYYADSVKGRFTISRDNAKHTVYLQMNSLKPEDTAVYFCAATYVGPRRRYYYWGQGTQVTVSS | high polyreactivity
7 | QVQLVESGGGLVQAGGSLRLSCAASGRTFYRNAMGWYRPAPGKERELVAAITSSGASTYYADSVKGRFTISRDNAKNTVYLQMKSLKPEDTAVYYCAAKYVFSVGNYRYDYWGQGTQVTGSS | low polyreactivity
8 | QVQLVESGGGLVQAGGSLRLSCAASGRTFYRNAMGWYRQAPGKERELVAAISRGDSTYYADSVKGRFTISRDNAKNTVYLQMNSLKPEDTAVYYCAKRARRIGDVNMGSWGQGTQVTVSS | low polyreactivity
9 | QVQLVESGGGLVQAGGSLRLSCAASGRTFYRNAMGWYRQATGKEREFVAVISVSGGSTYYADSVKGRFTISRDYAKNTVYLQMNSLKPEDTAVYYCGKRGPVRKTAYEYWGQGTQVTVSS | low polyreactivity
10 | QVQLVESGGGLVQAGGSLRLSCAASGRTFYRNDMGWYRQAPGKERELVAAITSSGGTTYADSVKGRFTISRDNAKNTVYLQMNSLKPEDTAVYYCAAVYAYPNIYDYWGQGTQVNVSS | low polyreactivity
11 | QVQLVESGGGLVQAGGSLRLSCAASGRTFYRYAMGWSRQAPGKERELVAGISGSGGRTYYADSVKGRFTISRDNAKNTVFLQMNSLKPEDTAVYYCNAYPHAYTGSTREGDYWGQGTQVTVSS | high polyreactivity
12 | QVQLVESGGGLVQAGGSLRLSCAASGRTFYRYAMGWYRQAPGKEREFVAAISNGGSNTRYADSVKGRFTISRDNAKNTVYLQMNSLKPEDTAVYYCAARAYQHYNWGQGTQVTVSS | high polyreactivity
13 | QVQLVESGGGLVQAGGSLRLSCAASGRTFYRYAMGWYRQAPGKERELVAAITSGDRTDYADSVKGRFTISRDNAKNTVYLQMNSLKPEDTAVYYCAADPYYVTDYDYWGEGTQVTVSS | low polyreactivity
14 | QVQLVESGGGLVQAGGSLRLSCAASGRTFYRYAMGWYRQAPGKERELVAVISTDGSSTYYADSVKGRFTISRDNAKNTVYLLMNSLKPEDTAVYYCAARSLAWLFGRNYWGQGTQVTVSS | high polyreactivity
15 | QVQLVESGGGLVQAGGSLRLSCAASGRTFYRYAMGWYRQPPGKESELVARIRATGGSTYYADSVKGRFTISRDYAKNTVYSQMNSLKPEDTAVYYCAAKIRWGSTWLGAGDYWGQGTQVTVSS | high polyreactivity
16 | QVQLVESGGGLVQAGGSLRLSCAASGRTFYSFNAMVCYRQAPVKERELVAAIVGDGGITYYADSVKGRFTISRDNANNTVFLQMNSLKPEDTAVYYCAAETLHSSDGEDDYWGQGTQVSVSS | low polyreactivity
17 | QVQLVESGGGLVQAGGSLRLSCAASGRTFYSNAMGWYRPAPGKERELGATISSGGSTNYADSVKGRFTISRDTAKNTVYLQINSVKPADTAVYYCDTRPDRINDYWGQGTQVTVSS | low polyreactivity
18 | QVQLVESGGGLVQAGGSLRLSCAASGRTFYSNAMGWYRQAPGKERELVAAITSGGSTNYADSVKGRFTISRDNAKNTVYLQMNSLKPEDSAVYYCAVRGYWTIRSRRYYYWGQGTQVTVSS | high polyreactivity
19 | QVQLVESGGGLVQAGGSLRLSCAASGRTFYSNAMGWYRQAPGKERELVAAITSTDDSTYYADSVKGRFTISRDNAKNTVYLQMNSLKPEDNAVYYCNRDGLIAIRGLWWVEYDYWGQGTQVTVSS | low polyreactivity
20 | QVQLVESGGGLVQAGGSLRLSCAASGRTFYSNAMGWYRQAPGKERELVAGINIGGGSTYYADSVKGRFTISRDNAKNTVYLQMNSLKPEDTAVYYCAARRWGAYRHGYWGQGTQVTVSS | high polyreactivity

Row | Sequence | polyreactivity (PSR sort gate)
21 | QVQLVESGGGLVQAGGSLRLSCAASGRTFYSYAMGWYRQAPGKERELVAAINTSGGRTHYADSVKGRFTISRDNAKNTVYLQMNCMKPEDTAVYYCAKLARSGTLTYYYWGQGTQVNVSS | high polyreactivity
22 | QVQLVESGGGLVQAGGSLRLSCAASGRTFYSYAMGWYRQAPGKERELVAAITSDGGTYYADSVKGRFTISRDNAKNTVYLQMNSLKPEDTAVYYCNAVGGWVTHWLLREGDYWGQGTQVTVSS | low polyreactivity
23 | QVQLVESGGGLVQAGGSLRLSCAASGRTFYSYAMGWYRQAPGKERELVAAMTSDGGTYYADSVKGRFTISRDNAKNTVYLQMNSLKPEDTAVYYCAAELYYWYYYWGQGTKVTVSS | low polyreactivity
24 | QVQLVESGGGLVQAGGSLRLSCAASGRTFYSYARGWYRQAPGKEREFFAAISRSGGSTYYADSVKGRFTISRDYAKNTVYLQMNSLKPEDTAVYYCAARYRRDDYDYWGQGTQVTVSS | high polyreactivity
25 | QVQLVESGGGLVQAGGSLRLSCAASGRTFYSYTMGWYRQAPGKERELVAAINRGGSTYYADSVKWRFTISRDNAKNTVYLQMNSLKPEDTAVYYCNADNWVYLYDYWGQGTQVTVSS | low polyreactivity
26 | QVQLVESGGGLVQAGGSLRLSCAASGRTFYTNAKGWYRQAPGKERELVAAISSDSSTNYADSVKGRLTISRDNAKNTVYLQMNSLKPEDTAVYYCNKVRQGWADYEYWGQGSQVTVSS | low polyreactivity
27 | QVQLVESGGGLVQAGGSLRLSCAASGRTFYTNAMGWSRQAPGKERELVAAISRGGGRTYYADSVKGRFTISRDNAKNTVYLQMNSLKPEDTAVYYCAASPYQGQGREYYYWGQGTQVTVSS | high polyreactivity
28 | QVQLVESGGGLVQAGGSLRLSCAASGRTFYTNTMGWYRPAPGKERELVAAISYSGSSTYYADSVKGRFTISRDNAKNTVYLQMNSLKPEDTAVYYCNAVRYYRYYYWGQGTQVTVSS | low polyreactivity
29 | QVQLVESGGGLVQAGGSLRLSCAASGRTFYTVYAMGWYRQAPGKERELVAAITRSGGSTYYADSVKGRFTISRDNAKNTLYLQMNSLKPEDTAVYYCAAAPPLAGLGGYYWGQGTQVTVSS | high polyreactivity
30 | QVQLVESGGGLVQAGGSLRLSCAASGRTFYTYTMGWYRQAPRKEREFVAAISSSGSSTYYADSVKGRFTISRDNAKNTVYLQMNSLKPEDTAVYYCAATSYSYPGYFRYDYWGQGTQVTVSS | high polyreactivity
31 | QVQLVESGGGLVQAGGSLRLSCAASGRTFYVKVMGWYRQEPGKERELVAVISRSDGSTTYADSVKGRFTISRDNAKNTVYLQMNSLKPEDTAVYYCNTDLPLGSGVLPDWELFDYWGQGTQVTVSS | low polyreactivity
32 | QVQLVESGGGLVQAGGSLRLSCAASGRTFYVNAMGGYRQAPGKERELVARITSGGSTYYADSVKGRFTISRDNAKNTVYLQMNSLKPEDTAVYYCAKKYIGYQEWIHSTRRYDYWGQGTQVTGSS | low polyreactivity
33 | QVQLVESGGGLVQAGGSLRLSCAASGRTFYVNTMGWYRQAPGKERELVASITWSDGSTYYADSVKGRFTISRDNAKNTVYLQMNSLKPDDSAVYYCAASGRFIVNAYRSWGRRRYEYWGQGTQVTVSS | high polyreactivity
34 | QVQLVESGGGLVQAGGSLRLSCAASGRTFYVYAMGWYRQAPGKERELVAAITFSGGSTYYADSVKGRFTISRDNAKNPVYLQMNSLKPEDTAVYYCNRRSYVPDRFRHDSSVIYDYWGQGTQVTVSS | low polyreactivity
35 | QVQLVESGGGLVQAGGSLRLSCAASGRTFYVYAMGWYRQAPGKERELVATISRGGSTTYADSVKGRFTISRDNAKNTVYLQMNSLKPEDTAVYYCATELLGGRRTVAYYWGQGTQVTVSS | low polyreactivity
36 | QVQLVESGGGLVQAGGSLRLSCAASGRTFYVYAMGWYRQAPGNERELVATISRSGGGTYYADSVKGRFTISRDNAKNTVYLQMNSLTPEDTAVYYCAAKPYRRDYGYWGQGTQVTVSS | high polyreactivity
37 | QVQLVESGGGLVQAGGSLRLSCAASGRTFYVYNMGCYRQAPGKERELVAGISYSGGSTYYADSVKGRFTISRDNAKNTVYLQMNSLKPEDTAVYYSNAELYFPYFDGKTRLGGYWGLGTQVTVSS | low polyreactivity
38 | QVQLVESGGGLVQAGGSLRLSCAASGRTFYWNAMGWYRQAPGKERELVAAISDGGGSTYYADSVKGRFTISRDNAKNTVYLHMNSLKPEDTAVYYCNTPDNQDKPYPGYDYWGQGTQVTVSS | low polyreactivity
39 | QVQLVESGGGLVQAGGSLRLSCAASGRTFYWNAMGWYRQAPGKERELVASINGGGSTYYADSVKGRFTISRDNAKNTVYLQMNSLKPEDTAVYYCNVRYYFPRYQQRYQLNEYYYWGQGTQVTVSS | low polyreactivity
40 | QVQLVESGGGLVQAGGSLRLSCAASGRTFYYNAMGWYRQAPGKERELVAAISYRGGSTYYADSVKGRFTISRDNAKNTVYLQMNSLKPEDTAVYYCAKYPHPLKYPGYPSEFDYWGQGTQVTVSS | low polyreactivity
